The numbers were not newly measured in PMC12428796, which cites them from elsewhere.

What all share (settings): No direct protein-aptamer binding assay in this paper (only cell uptake by flow cytometry/confocal in MIA PaCa-2 and L929, with anti-nucleolin blocking)
(In flow cytometry, cells or beads pass a laser one at a time.)

Data set [1] addresses T1, cholecystokinin B receptor (CCKBR) (UniProt P32239).
T1 sequence (P32239 whole entry, looked up): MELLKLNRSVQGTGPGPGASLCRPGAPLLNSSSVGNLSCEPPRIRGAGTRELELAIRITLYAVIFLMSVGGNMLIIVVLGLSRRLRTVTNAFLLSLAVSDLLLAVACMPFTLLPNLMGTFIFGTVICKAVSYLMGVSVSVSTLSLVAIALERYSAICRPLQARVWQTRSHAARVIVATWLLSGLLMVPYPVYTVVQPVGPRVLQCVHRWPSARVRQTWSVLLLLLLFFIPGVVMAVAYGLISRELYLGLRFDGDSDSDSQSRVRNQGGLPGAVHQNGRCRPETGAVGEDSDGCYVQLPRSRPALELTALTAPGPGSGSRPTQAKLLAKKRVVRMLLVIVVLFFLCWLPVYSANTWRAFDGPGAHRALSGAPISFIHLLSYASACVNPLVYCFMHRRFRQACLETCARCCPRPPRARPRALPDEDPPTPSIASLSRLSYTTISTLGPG

Data set [2] addresses transferrin receptor 1 (TfR1) (UniProt P02786).
In data set [3] the target is matrix metalloproteinase 14 (MMP14) (UniProt P50281).
Another data set has as its target nucleolin (UniProt P19338).

nucleolin, sequence (P19338 whole entry): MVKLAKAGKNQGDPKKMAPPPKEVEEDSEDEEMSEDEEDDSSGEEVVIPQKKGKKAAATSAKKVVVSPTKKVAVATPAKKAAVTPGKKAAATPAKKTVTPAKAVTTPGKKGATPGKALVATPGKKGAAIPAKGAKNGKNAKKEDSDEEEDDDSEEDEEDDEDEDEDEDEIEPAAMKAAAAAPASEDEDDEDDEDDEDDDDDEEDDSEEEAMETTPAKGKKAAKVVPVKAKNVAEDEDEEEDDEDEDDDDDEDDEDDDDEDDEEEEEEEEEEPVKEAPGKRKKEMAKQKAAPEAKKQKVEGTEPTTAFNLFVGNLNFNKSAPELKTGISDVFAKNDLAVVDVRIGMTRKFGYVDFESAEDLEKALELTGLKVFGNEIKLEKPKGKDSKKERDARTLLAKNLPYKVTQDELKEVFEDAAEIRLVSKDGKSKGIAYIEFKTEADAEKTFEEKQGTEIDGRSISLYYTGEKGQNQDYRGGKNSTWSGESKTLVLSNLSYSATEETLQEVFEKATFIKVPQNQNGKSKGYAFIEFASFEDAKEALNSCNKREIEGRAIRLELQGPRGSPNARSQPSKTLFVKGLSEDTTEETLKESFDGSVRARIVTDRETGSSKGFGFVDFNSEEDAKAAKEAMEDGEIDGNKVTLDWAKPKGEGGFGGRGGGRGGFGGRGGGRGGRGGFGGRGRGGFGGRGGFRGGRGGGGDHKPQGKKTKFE
transferrin receptor 1 (TfR1), sequence (P02786 whole entry): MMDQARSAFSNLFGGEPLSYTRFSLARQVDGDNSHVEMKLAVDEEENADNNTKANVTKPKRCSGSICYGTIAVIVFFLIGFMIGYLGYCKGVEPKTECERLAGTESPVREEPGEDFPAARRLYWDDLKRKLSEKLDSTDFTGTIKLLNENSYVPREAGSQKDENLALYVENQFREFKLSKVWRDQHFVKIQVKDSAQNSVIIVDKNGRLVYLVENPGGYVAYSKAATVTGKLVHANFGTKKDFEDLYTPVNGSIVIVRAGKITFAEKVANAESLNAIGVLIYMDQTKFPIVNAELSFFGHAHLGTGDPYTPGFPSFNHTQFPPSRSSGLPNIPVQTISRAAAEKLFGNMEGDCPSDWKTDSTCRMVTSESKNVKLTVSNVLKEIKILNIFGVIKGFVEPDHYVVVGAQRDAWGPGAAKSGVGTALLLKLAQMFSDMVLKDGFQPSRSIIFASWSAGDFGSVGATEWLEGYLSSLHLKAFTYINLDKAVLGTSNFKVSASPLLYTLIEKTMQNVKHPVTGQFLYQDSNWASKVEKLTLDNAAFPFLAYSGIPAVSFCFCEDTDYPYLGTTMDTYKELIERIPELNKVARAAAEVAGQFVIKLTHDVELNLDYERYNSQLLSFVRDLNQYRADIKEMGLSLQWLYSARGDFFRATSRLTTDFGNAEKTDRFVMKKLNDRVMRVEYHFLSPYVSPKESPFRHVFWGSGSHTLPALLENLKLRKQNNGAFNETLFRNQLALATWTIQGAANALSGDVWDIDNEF

As to “CATGGTGCAGGTGTGGCTGGGATTCATTTGCCGGTGCTGGTGCGTCCGCGGCCGCTAATCCTGTTC [AP1153]”, the Kd (commonly the concentration at which binding is half-saturated) in data set [1] was 0.206 nM.

“ACTCATAGGGTTAGGGGCTGCTGGCCAGATACTCAGATGGTAGGGTTACTATGAGC [XQ-2D]”: the dissociation constant Kd in data set [2] was 55 nM.

“AGGGCCCGACGTGACGGCACGTCGGATATCTCATGCGTGT [M17]”: the Kd in data set [3] is 4.98 nM.

Turning to GGTGGTGGTGGTGTTGGTGGTGGTGG [AS1411], the equilibrium dissociation constant (Kd) in the data set with nucleolin is 16.4 nM.
